Measurements as given in US20120219562A1 (AbbVie / Abbott, published 2012).
Where a chain is given by its changes, count along the chain named. Names and notes keep the numbering of the source. Values joined by “and” are separate entries in the source; they are usually repeats but may differ in a detail not shown here. Identical values can stand only once.

B1: 136-14 (antibody, V domains shown)
VH: QVQLVQSGGGVVQPGRSLRLSCAASGFTFSSYGMHWVRQAPGKGLEWVAFIRYDGSNKYYADSVKGRFTISRDNSKNTLYLQMKSLRAEDTAVYYCTTHGSHDNWGQGTMVTVSS
VL: SYVLTQPPSVSGTPGQRVTISCSGGRSNIGSNTVKWYQQLPGTAPKLLIYGNDQRPSGVPDRFSGSKSGTSASLAITGVQAEDEADYYCQTYDRGFTGSRVFGTGTKVTVL
B2: 73-C1 (antibody, V domains shown)
VH: B1 VH with H99S, H102Y, N104Y
VL: SYVLTQPPSVSGTPGQRVTISCSGGRSNIGSNTVKWYQQLPGTAPKLLIYGNDQRPSGVPDRFSGSKSGTSASLAITGVQAEDEADYYCHSYDSRFTGSRVFGTGTKVTVLG
B3: Y61 human anti-hIL-12 antibody (antibody, V domains shown)
VH: B1 VH with T97K
VL: B2 VL with H90Q, S94R, R95G, F96T, T97H, G98P, S99A, R100L, V101L
B4: 136-17 (antibody, V domains shown)
VH: B1 VH
VL: B1 VL with T91S, R94W, G95N
B5: 136-15 (antibody, V domains shown)
VH: B1 VH with T97K
VL: B2 VL with G25S, H90Q, S91T, S94K, R95G, R100S
B6: 136-16 (antibody, V domains shown)
VH: B1 VH
VL: B1 VL with T91S, G95R
B7: Y61-L94Y IgG (antibody, V domains shown)
VH: B1 VH with T97K
VL: QSVLTQPPSVSGAPGQRVTISCSGSRSNIGSNTVKWYQQLPGTAPKLLIYGNDQRPSGVPDRFSGSKSGTSASLAITGLQAEDEADYYCQSYDRYTHPALLFGTGTKVTVL
B8: 136-15M1 (antibody, V domains shown)
VH: B1 VH with T97A, T98K
VL: B2 VL with H90Q, S94R, R95G
B9: Y61 IgG (antibody, V domains shown)
VH: B1 VH with T97K
VL: B2 VL with H90Q, S94R, R95G, F96T, T97H, G98P, S99A, R100L, V101L
notes: IgG
B10: 136-10 (antibody, V domains shown)
VH: B1 VH with N104D
VL: B1 VL with T91S
B11: 136-21 (antibody, V domains shown)
VH: B1 VH
VL: B1 VL with T91S, R94N
B12: Y61-L50Y* IgG (antibody, V domains shown)
VH: B1 VH with T97K
VL: B7 VL with G51Y, Y95G
B13: 73-B1 (antibody, V domains shown)
VH: B1 VH with H99S, H102Y, N104Y
VL: B2 VL with R95D
B14: 73-B6 (antibody, V domains shown)
VH: B1 VH with H99S, H102Y, N104Y
VL: B2 VL with S94N
B15: SEQ ID NO: 525 (Y61, F at L50) (antibody, V domains shown)
VH: B1 VH with T97K
VL: B2 VL with G51F, H90Q, S94R, R95G, F96T, T97H, G98P, S99A, R100L, V101L
B16: SEQ ID NO: 524 (Y61, W at L50) (antibody, V domains shown)
VH: B1 VH with T97K
VL: B2 VL with G51W, H90Q, S94R, R95G, F96T, T97H, G98P, S99A, R100L, V101L
B17: SEQ ID NO: 526 (Y61, S at L53) (antibody, V domains shown)
VH: B1 VH with T97K
VL: B2 VL with Q54S, H90Q, S94R, R95G, F96T, T97H, G98P, S99A, R100L, V101L
B18: SEQ ID NO: 523 (Y61, P at L50) (antibody, V domains shown)
VH: B1 VH with T97K
VL: B2 VL with G51P, H90Q, S94R, R95G, F96T, T97H, G98P, S99A, R100L, V101L
B19: SEQ ID NO: 531 (Y61, A at L53) (antibody, V domains shown)
VH: B1 VH with T97K
VL: B2 VL with Q54A, H90Q, S94R, R95G, F96T, T97H, G98P, S99A, R100L, V101L
B20: SEQ ID NO: 530 (Y61, T at L53) (antibody, V domains shown)
VH: B1 VH with T97K
VL: B2 VL with Q54T, H90Q, S94R, R95G, F96T, T97H, G98P, S99A, R100L, V101L
B21: SEQ ID NO: 527 (Y61, Y at L53) (antibody, V domains shown)
VH: B1 VH with T97K
VL: B2 VL with Q54Y, H90Q, S94R, R95G, F96T, T97H, G98P, S99A, R100L, V101L
B22: J695 (Y61-L94Y-L50Y IgG*) (antibody, V domains shown)
VH: B1 VH with Q6E, K84N, T97K
VL: QSVLTQPPSVSGAPGQRVTISCSGSRSNIGSNTVKWYQQLPGTAPKLLIYYNDQRPSGVPDRFSGSKSGTSASLAITGLQAEDEADYYCQSYDRYTHPALLFGTGTKVTVLG
notes: also called ABT-874
B23: SEQ ID NO: 528 (Y61, R at L53) (antibody, V domains shown)
VH: B1 VH with T97K
VL: B22 VL with Q1S, S2Y, A13T, S25G, Y51G, Q54R, L79V, Y95G
B24: SEQ ID NO: 533 (Y61, P at L53) (antibody, V domains shown)
VH: B1 VH with T97K
VL: B22 VL with Q1S, S2Y, A13T, S25G, Y51G, Q54P, L79V, Y95G
B25: SEQ ID NO: 532 (Y61, I at L53) (antibody, V domains shown)
VH: B1 VH with T97K
VL: B22 VL with Q1S, S2Y, A13T, S25G, Y51G, Q54I, L79V, Y95G
B26: Joe9 wt IgG1 (antibody, V domains shown)
VH: not shown
VL: SYVLTQPPSVSGTPGQRVTISCSGGRSNIGSNTVKWYQQLPGTAPKLLIYGNDQRPSGVPDRFSGSKSGTSASLAITGVQAEDEADYYCQSYDSSLRG

Columns and labels:
[1] = target: T1, human interleukin 12 (human, UniProt P29459 23-219; P29460 23-328); experiment: cell-based or functional assay
T1 sequence (looked up) 1: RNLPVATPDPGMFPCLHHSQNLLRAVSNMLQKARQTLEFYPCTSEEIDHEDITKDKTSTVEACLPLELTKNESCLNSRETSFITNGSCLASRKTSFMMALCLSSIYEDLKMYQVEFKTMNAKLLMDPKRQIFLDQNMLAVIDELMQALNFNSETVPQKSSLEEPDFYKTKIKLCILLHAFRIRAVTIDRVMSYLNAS
T1 sequence (looked up) 2: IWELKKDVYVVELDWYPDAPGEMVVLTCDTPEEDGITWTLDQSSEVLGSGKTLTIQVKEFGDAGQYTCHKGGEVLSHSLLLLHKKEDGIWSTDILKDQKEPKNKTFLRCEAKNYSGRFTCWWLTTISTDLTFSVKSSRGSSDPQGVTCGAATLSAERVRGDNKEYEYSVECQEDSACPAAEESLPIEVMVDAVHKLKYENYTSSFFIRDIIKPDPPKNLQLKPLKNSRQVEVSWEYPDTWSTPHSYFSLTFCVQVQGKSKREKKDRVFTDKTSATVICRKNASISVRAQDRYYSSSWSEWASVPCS

[2] = target: T1, human interleukin 12; experiment: RB assay (IL-12 receptor binding)
[3] = target: T1, human interleukin 12; experiment: SPR (BIAcore)
[4] = target: T2, human interleukin 12 (p70 heterodimer of p35 and p40) (human, UniProt P29459 23-219; P29460 23-328); experiment: SPR (BIAcore), off-rate
T2 construct: Recombinant human IL-12; also called hIL-12; IL-12
T2 sequence (looked up) 1: T1 sequence (looked up) 1
T2 sequence (looked up) 2: T1 sequence (looked up) 2

[5] = target: T2, human interleukin 12 (p70 heterodimer …); experiment: SPR (BIAcore), off-rate; remark: listed apart in the source
[6] = target: T2, human interleukin 12 (p70 heterodimer …); experiment: SPR (BIAcore), off-rate; remark: listed apart in the source
[7] = target: T2, human interleukin 12 (p70 heterodimer …); experiment: SPR (BIAcore), off-rate; remark: listed apart in the source
[8] = target: T2, human interleukin 12 (p70 heterodimer …); experiment: SPR (BIAcore), off-rate; remark: listed apart in the source
[9] = target: T2, human interleukin 12 (p70 heterodimer …); experiment: surface plasmon resonance (BIAcore)
[10] = target: T2, human interleukin 12 (p70 heterodimer …); experiment: SPR (BIAcore), off-rate; remark: listed apart in the source
[11] = target: T2, human interleukin 12 (p70 heterodimer …); experiment: SPR (BIAcore), off-rate; remark: listed apart in the source
[12] = target: T3, human interleukin 12 (recombinant human IL-12, p70 heterodimer) (human, UniProt P29459 23-219; P29460 23-328); experiment: cell-based or functional assay
T3 sequence (looked up) 1: T1 sequence (looked up) 1
T3 sequence (looked up) 2: T1 sequence (looked up) 2

[13] = target: T3, human interleukin 12 (recombinant human …); experiment: SPR (BIAcore), off-rate from human IL-12
[14] = target: T3, human interleukin 12 (recombinant human …); experiment: RB assay: inhibition of IL-12 binding to its receptor
[15] = target: T3, human interleukin 12 (recombinant human …); experiment: cell-based or functional assay; remark: listed apart in the source

Row | Binder | IC50 [2] [nM] | koff [3] [s⁻¹] | koff [5] | other results
1 | B1 | 0.3 | 0.0011 |  | PHA assay IC50 [1]: 100 nM
2 | B2 | > 10 | 0.00271 |  | 
3 | B3 |  |  | 0.000215 s⁻¹ and 0.000297 s⁻¹ | koff [4]: 0.00031 s⁻¹ and 0.000385 s⁻¹; koff [6]: 0.000397 s⁻¹ and 0.000375 s⁻¹ and 0.000255 s⁻¹ and 0.000143 s⁻¹; koff [7]: 0.000211 s⁻¹ and 0.000229 s⁻¹ and 0.000241 s⁻¹; koff [8]: 0.000403 s⁻¹; koff [9]: ~0.0002 s⁻¹; koff [10]: 0.000168 s⁻¹ and 0.000337 s⁻¹ and 0.000178 s⁻¹; koff [11]: 0.000204 s⁻¹ and 0.000206 s⁻¹ and 0.000151 s⁻¹ and 0.000178 s⁻¹
4 | B4 | 2 | 2.9e-05 |  | PHA assay IC50 [1]: 7 nM
5 | B5 |  |  |  | PHA assay IC50 (M) p70:p40 1:0 [12]: 2e-09 M
6 | B6 | 0.3 | 0.00061 |  | PHA assay IC50 [1]: 5 nM
7 | B7 |  |  |  | koff [13]: 0.000127 s⁻¹; IC50 [14]: 0.06 nM; IFN gamma IC50 [15]: 0.04 nM; PHA assay IC50 [15]: 0.05 nM
8 | B8 | 0.4 |  |  | 
9 | B9 |  |  |  | koff [13]: 0.00015 s⁻¹; PHA assay IC50 [15]: 0.13 nM; PHA assay IC50 (M) p70:p40 1:0 [12]: 1.8e-10 M; PHA assay IC50 (M) p70:p40 1:50 [12]: 1.8e-10 M
10 | B10 | 2 | 0.0014 |  | 
11 | B11 | 2 | 0.00042 |  | 
12 | B12 |  |  |  | koff [13]: 6.98e-05 s⁻¹; IFN gamma IC50 [15]: 0.03 nM; PHA assay IC50 [15]: 0.02 nM
13 | B13 | > 10 | 0.00325 |  | 
14 | B14 | > 10 | 0.00251 |  | 
15 | B15 |  |  | 0.0348 s⁻¹ | 
16 | B16 |  |  | 0.000382 s⁻¹ | 
17 | B17 |  |  | 0.000866 s⁻¹ | 
18 | B18 |  |  | 0.00041 s⁻¹ | 
19 | B19 |  |  | 0.000554 s⁻¹ | 
20 | B20 |  |  | 0.000834 s⁻¹ | 
21 | B21 |  |  | 0.000733 s⁻¹ | 
22 | B22 |  |  |  | koff [13]: 5.14e-05 s⁻¹
23 | B23 |  |  | 0.000614 s⁻¹ | 
24 | B24 |  |  | 0.000974 s⁻¹ | 
25 | B25 |  |  | 0.000855 s⁻¹ | 
26 | B26 |  |  |  | PHA assay IC50 [1]: 500 nM
